Laboratory results taken from paper PMC3170326, “AKAP12 and AKAP5 form higher-order hetero-oligomers” (Journal of Molecular Signaling, 2011).

Key:
[1] = target: His-tagged AKAP12 (purified, used for steric-exclusion chromatography) (human) (UniProt Q02952); assay: SEC; purified His-tagged AKAP5 or AKAP12 alone on HiPrep Sephacryl S-400 HR 16/60, PBS with 0.01% NaN3; fractions analysed by SDS-PAGE and immunoblot; homo-oligomer size from elution position
[2] = target: T1, HA-tagged full-length AKAP5 (human, UniProt P24588 1-427); assay: co-IP; anti-HA immunoprecipitation from whole-cell lysates of A431 cells co-expressing an HA-tagged and a GFP-tagged AKAP; cells untreated, treated with 10 uM isoproterenol for 10-30 min, or washed free of agonist for 2 h; immunoblot; details: partners not purified
T1 construct: AKAP5 (AKAP79), human, full length; pCMV-HA vector; also called HA-AKAP5; source: A431 cells, transiently transfected, in lysate
T1 sequence (P24588 whole entry): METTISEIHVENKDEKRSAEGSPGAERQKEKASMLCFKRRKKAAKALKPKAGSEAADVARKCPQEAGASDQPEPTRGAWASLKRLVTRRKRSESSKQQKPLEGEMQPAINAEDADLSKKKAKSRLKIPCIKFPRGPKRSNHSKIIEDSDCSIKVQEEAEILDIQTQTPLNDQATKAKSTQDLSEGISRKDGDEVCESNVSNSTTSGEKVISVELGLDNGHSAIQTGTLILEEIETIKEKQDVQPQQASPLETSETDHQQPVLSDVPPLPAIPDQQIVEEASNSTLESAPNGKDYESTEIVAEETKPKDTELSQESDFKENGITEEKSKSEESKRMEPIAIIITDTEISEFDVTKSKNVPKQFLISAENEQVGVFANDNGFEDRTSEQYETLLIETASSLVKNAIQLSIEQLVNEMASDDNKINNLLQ

Row | stoichiometry N [1] | fold increase of AKAP12 co-precipitated with AKAP5 after 30 min isoproterenol, over unstimulated cells [2] [fold] | Molecule
1 | 4 | – | His-tagged AKAP12 (purified, used for steric-exclusion chromatography) (from UniProt Q02952 1-1782) (natural protein)
2 | – | 4 | GFP-tagged AKAP12 (natural protein, human, UniProt Q02952 1-1782, looked up, AKAP12 (gravin), human, full length; also called AKAP12-GFP; full-length AKAP12; source: A431 cells, stably expressing, in lysate) MGAGSSTEQRSPEQPPEGSSTPAEPEPSGGGPSAEAAPDTTADPAIAASDPATKLLQKNGQLSTINGVAEQDELSLQEGDLNGQKGALNGQGALNSQEEEEVIVTEVGQRDSEDVSKRDSDKEMATKSAVVHDITDDGQEETPEIIEQIPSSESNLEELTQPTESQANDIGFKKVFKFVGFKFTVKKDKTEKPDTVQLLTVKKDEGEGAAGAGDHKDPSLGAGEAASKESEPKQSTEKPEETLKREQSHAEISPPAESGQAVEECKEEGEEKQEKEPSKSAESPTSPVTSETGSTFKKFFTQGWAGWRKKTSFRKPKEDEVEASEKKKEQEPEKVDTEEDGKAEVASEKLTASEQAHPQEPAESAHEPRLSAEYEKVELPSEEQVSGSQGPSEEKPAPLATEVFDEKIEVHQEEVVAEVHVSTVEERTEEQKTEVEETAGSVPAEELVEMDAEPQEAEPAKELVKLKETCVSGEDPTQGADLSPDEKVLSKPPEGVVSEVEMLSSQERMKVQGSPLKKLFTSTGLKKLSGKKQKGKRGGGDEESGEHTQVPADSPDSQEEQKGESSASSPEEPEEITCLEKGLAEVQQDGEAEEGATSDGEKKREGVTPWASFKKMVTPKKRVRRPSESDKEDELDKVKSATLSSTESTASEMQEEMKGSVEEPKPEEPKRKVDTSVSWEALICVGSSKKRARRGSSSDEEGGPKAMGGDHQKADEAGKDKETGTDGILAGSQEHDPGQGSSSPEQAGSPTEGEGVSTWESFKRLVTPRKKSKSKLEEKSEDSIAGSGVEHSTPDTEPGKEESWVSIKKFIPGRRKKRPDGKQEQAPVEDAGPTGANEDDSDVPAVVPLSEYDAVEREKMEAQQAQKSAEQPEQKAATEVSKELSESQVHMMAAAVADGTRAATIIEERSPSWISASVTEPLEQVEAEAALLTEEVLEREVIAEEEPPTVTEPLPENREARGDTVVSEAELTPEAVTAAETAGPLGAEEGTEASAAEETTEMVSAVSQLTDSPDTTEEATPVQEVEGGVPDIEEQERRTQEVLQAVAEKVKEESQLPGTGGPEDVLQPVQRAEAERPEEQAEASGLKKETDVVLKVDAQEAKTEPFTQGKVVGQTTPESFEKAPQVTESIESSELVTTCQAETLAGVKSQEMVMEQAIPPDSVETPTDSETDGSTPVADFDAPGTTQKDEIVEIHEENEVASGTQSGGTEAEAVPAQKERPPAPSSFVFQEETKEQSKMEDTLEHTDKEVSVETVSILSKTEGTQEADQYADEKTKDVPFFEGLEGSIDTGITVSREKVTEVALKGEGTEEAECKKDDALELQSHAKSPPSPVEREMVVQVEREKTEAEPTHVNEEKLEHETAVTVSEEVSKQLLQTVNVPIIDGAKEVSSLEGSPPPCLGQEEAVCTKIQVQSSEASFTLTAAAEEEKVLGETANILETGETLEPAGAHLVLEEKSSEKNEDFAAHPGEDAVPTGPDCQAKSTPVIVSATTKKGLSSDLEGEKTTSLKWKSDEVDEQVACQEVKVSVAIEDLEPENGILELETKSSKLVQNIIQTAVDQFVRTEETATEMLTSELQTQAHVIKADSQDAGQETEKEGEEPQASAQDETPITSAKEESESTAVGQAHSDISKDMSEASEKTMTVEVEGSTVNDQQLEEVVLPSEEEGGGAGTKSVPEDDGHALLAERIEKSLVEPKEDEKGDDVDDPENQNSALADTDASGGLTKESPDTNGPKQKEKEDAQEVELQEGKVHSESDKAITPQAQEELQKQERESAKSELTES
